Data from article doi:10.1101/2025.05.08.652848 (bioRxiv, 2025).
*: point of attachment. Biotin = O=C1N[C@H]2[C@H](CS[C@H]2CCCCC(=O)*)N1

Assays:
[1] = target: His-PPARG LBD (human PPARG ligand-binding domain, residues 231 to 505), wild type (human) (UniProt P37231); assay: AlphaScreen or HTRF
[2] = target: T1, RXRA^WT:PPARG LBD heterodimer (human, UniProt P37231;P19793); assay: AlphaScreen or HTRF
T1 sequence 1: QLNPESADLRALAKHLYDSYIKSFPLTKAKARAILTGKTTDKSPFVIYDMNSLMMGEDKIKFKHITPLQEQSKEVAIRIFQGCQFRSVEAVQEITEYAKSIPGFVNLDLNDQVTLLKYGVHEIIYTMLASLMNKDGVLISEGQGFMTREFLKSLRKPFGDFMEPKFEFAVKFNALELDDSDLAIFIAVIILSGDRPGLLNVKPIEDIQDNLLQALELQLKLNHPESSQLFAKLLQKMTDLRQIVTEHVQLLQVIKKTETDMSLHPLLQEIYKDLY
T1 sequence 2: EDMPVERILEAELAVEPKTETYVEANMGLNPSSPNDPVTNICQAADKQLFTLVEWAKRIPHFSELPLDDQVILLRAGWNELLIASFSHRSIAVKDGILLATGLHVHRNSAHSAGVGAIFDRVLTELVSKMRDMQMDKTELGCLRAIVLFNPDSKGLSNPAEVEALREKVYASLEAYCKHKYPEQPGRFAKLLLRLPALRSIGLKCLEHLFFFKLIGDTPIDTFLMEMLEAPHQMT

[3] = target: N-terminal Avi-tagged PPARG LBD, FTX-6746-modified (human); assay: SPR
[4] = target: N-terminal Avi-tagged PPARG LBD, unmodified (DMSO) (human); assay: SPR

## biotinylated MED1 LxxLL peptide
[1]
  Kd: > 2500 nM

B1: biotinylated NCOR1 ID2 peptide (peptide)
peptide: Biotin-GHSFADPASNLGLEDIIRKALMG-NH2
SMILES: CC[C@H](C)[C@H](NC(=O)[C@H](CC(=O)O)NC(=O)[C@H](CCC(=O)O)NC(=O)[C@H](CC(C)C)NC(=O)CNC(=O)[C@H](CC(C)C)NC(=O)[C@H](CC(N)=O)NC(=O)[C@H](CO)NC(=O)[C@H](C)NC(=O)[C@@H]1CCCN1C(=O)[C@H](CC(=O)O)NC(=O)[C@H](C)NC(=O)[C@H](Cc1ccccc1)NC(=O)[C@H](CO)NC(=O)[C@H](Cc1c[nH]cn1)NC(=O)CNC(=O)CCCC[C@@H]1SC[C@@H]2NC(=O)N[C@@H]21)C(=O)N[C@H](C(=O)N[C@@H](CCCNC(=N)N)C(=O)N[C@@H](CCCCN)C(=O)N[C@@H](C)C(=O)N[C@@H](CC(C)C)C(=O)N[C@@H](CCSC)C(=O)NCC(N)=O)[C@@H](C)CC
[2]
  binding result: binds

B2: biotinylated MED1 LxxLL peptide (peptide)
peptide: Biotin-VSSMAGNTKNHPMLMNLLKDNPAQ-NH2
SMILES: CSCC[C@H](NC(=O)[C@H](CO)NC(=O)[C@H](CO)NC(=O)[C@@H](NC(=O)CCCC[C@@H]1SC[C@@H]2NC(=O)N[C@@H]21)C(C)C)C(=O)N[C@@H](C)C(=O)NCC(=O)N[C@@H](CC(N)=O)C(=O)N[C@H](C(=O)N[C@@H](CCCCN)C(=O)N[C@@H](CC(N)=O)C(=O)N[C@@H](Cc1c[nH]cn1)C(=O)N1CCC[C@H]1C(=O)N[C@@H](CCSC)C(=O)N[C@@H](CC(C)C)C(=O)N[C@@H](CCSC)C(=O)N[C@@H](CC(N)=O)C(=O)N[C@@H](CC(C)C)C(=O)N[C@@H](CC(C)C)C(=O)N[C@@H](CCCCN)C(=O)N[C@@H](CC(=O)O)C(=O)N[C@@H](CC(N)=O)C(=O)N1CCC[C@H]1C(=O)N[C@@H](C)C(=O)N[C@@H](CCC(N)=O)C(N)=O)[C@@H](C)O
[3]
  fraction of PPARG capable of binding CoA: 34%
[4]
  fraction of PPARG capable of binding CoA: 82%
[2]
  Kd: 270 nM
  binding result: binds
